Experimental data: publication PMC6803640, “Oligomeric state, hydrodynamic properties and target recognition of human Calcium and Integrin Binding protein 2 (CIB2)” (Scientific Reports, 2019)
Several values for one entry are separate records, joined by “and”; a condition that tells them apart may be missing. Identical values can stand only once.

What was measured:
human CIB2 [1] = target: T1, human CIB2 (Homo sapiens, UniProt O75838); experiment: SPR interaction of α7B peptides with immobilized CIB2; format: binding; details: His-CIB2 capture (7.5 µM peptide, or 230 nM–30 μM) and amine-coupled untagged CIB2 (7.5–30 µM); 1 mM Mg^2+, 2 mM Ca^2+; experiments repeated 4 times
T1 construct: made in house
T1 sequence (O75838 1-187): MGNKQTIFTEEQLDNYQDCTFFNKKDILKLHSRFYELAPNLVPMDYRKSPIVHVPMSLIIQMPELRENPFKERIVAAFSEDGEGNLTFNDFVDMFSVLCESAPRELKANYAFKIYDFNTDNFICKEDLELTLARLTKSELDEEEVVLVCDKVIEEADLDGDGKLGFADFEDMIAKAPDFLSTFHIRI
Excerpt: SPR was also used to study quantitatively the interaction of CIB2 with one of its established targets, namely the cytoplasmic domain of integrin α7B[3],[7]. Three different peptides were used in the interaction experiments. A peptide corresponding to the membrane proximal segment of the cytoplasmic domain of α7B integrin (α7B_M), another peptide with the same amino acid content, but randomized sequence (α7B_Scrb) and a peptide covering the C-terminal region of the cytoplasmic domain of α7B integrin (α7B_C). Three different approaches were used. In a first approach, His-tagged CIB2 was initially coupled to the surface of a His-cap sensor chip (see Methods), thus ensuring homogeneous site-specific orientation, and then blocked via standard amine coupling. […] The minor differences in the spectra at the level of the phenylalanine band can be ascribed to the TEV-protease recognition site (ENLYFQ), uncleaved in the His-tagged protein. […] In a third approach, we used the same low levels of CIB2 immobilization via amine coupling described in the experiments to probe CIB2 dimerization (100–200 RU) and flowed the three peptides.
The second approach (direct peptide immobilization) led to very low signals and unreproducible results and was not pursued any further. […] In spite of such differences, which might reflect both the heterogeneity of the surface and the different chemistry of immobilization, interaction results were consistent with one another. […] It should be noted that both Huang et al.[7] and Häger et al.[3] used peptides from mouse integrin, while we used the corresponding human sequences, which in the case of α7B_C lacks the tryptophan residue present in the mouse sequence. It is not uncommon that fluorescence spectroscopy interaction studies based on the peptide intrinsic fluorescence (CIB2 has no tryptophan residue) reveal some non-specific binding, especially when a highly hydrophobic protein such as CIB2 is the ligand. […] It cannot be excluded that a similar phenomenon occurred for murine α7B_C in the work by Häger et al.[3]. Our present results, based on accurate, label-free interaction studies clearly identify the region covered by α7B_M as the preferential binding site of CIB2 with α7B integrin.
SPR titrations of α7B_M over homogeneously coupled CIB2 (approach 1) gave very reproducible results and were performed both in the presence of 1 mM Mg^2+ and in the co-presence of 1 mM Mg^2+ and 2 mM Ca^2+. Peptide concentration was varied in the 230 nM–30 μM range. As anticipated, sensorgrams could not fit to a 1:1 binding model, and the kinetic model that better fit the data was a bivalent analyte model (see Methods), in which one α7B_M peptide could bind to two CIB2 molecules. According to this scheme, binding of the peptide to the first CIB2 molecule would direct the binding to the second one, thus resulting in two sets of kinetic constants.
Details of the protein and peptide immobilization procedures and experimental settings are elucidated in the Supplementary Information.
Kinetic data were fitted according to a bivalent analyte model, were a CIB2 monomer (L) can bind an α7B_M peptide (A), and the resulting complex (AL) can bind to a second CIB2 molecule (AL2), with all processes being possibly reversible, as follows: A+L→ka1ALAL→kd1A+LAL+L→ka2AL2AL2→kd2AL+L […]

CIB2 [2] = details: peptide intrinsic fluorescence; cited from earlier work
Excerpt: In a recent study[8] we investigated the capability of CIB2 to bind Ca^2+ and Mg^2+ thereby switching to a functionally distinct structural state. By integrating several biochemical and biophysical techniques we could establish that in the absence of any cation CIB2 forms a molten globule state that essentially lacks tertiary structure. […] This is quite unusual for Ca^2+-sensor pro ... || The second approach (direct peptide immobilization) led to very low signals and unreproducible results and was not pursued any further. […] In spite of such differences, which might ... || Interaction with α7B occurs in the region proximal to the membrane and not close to the C-terminus of the cytosolic domain of the integrin. The recognition between CIB2 and the α7B target is kinetically favored in the presence of physiological Mg^2+ and in the absence of Ca^2+ and it might induce binding of another CIB2 molecule. […] However, CIB2 per se binds a single peptide as a monomer, and the complex could then induce CIB2 dimerization, ...

human CIB2 [3] = target: T1, human CIB2; experiment: Cross-linking (DSBU)/MALDI-TOF-MS of CIB2 with α7B peptides; format: binding; details: 10 µM CIB2, 5, 10, 20 µM peptide, 50-fold DSBU; 20 mM HEPES pH 7.5, 1 mM Mg^2+, 2 mM Ca^2+, room temperature
Procedure: CIB2 samples were cross-linked with DSBU in the presence of peptide α7B_M or α7B_Scrb as described in ref.[14] Briefly, 10 µM CIB2 was diluted in 20 mM HEPES, pH 7.5, 1 mM DTT, 1 mM Mg^2+ and 2 mM Ca^2+ and incubated with increasing peptide concentrations (5 µM, 10 µM, and 20 µM) for 10 min at room temperature. Then, 50-fold molar excess of DSBU was added and the reactions were conducted for 20 min at room temperature. As control, CIB2 was treated with DSBU without peptide. Reactions were blocked by adding ammonium bicarbonate to a final concentration of 20 mM.
Cross-linked CIB2 samples were desalted via ZipTip C4 tips (Millipore) before MALDI-TOF-MS analysis (Ultraflex III MALDI-TOF/TOF mass spectrometer, Bruker Daltonik, Bremen) was conducted using sinapinic acid as matrix. For further details see Supplementary Methods. Baseline subtraction and spectra smoothing were performed. […]
Cross-linking reactions and Mass Spectrometry
Cross-linking reactions were performed with 10 µM CIB2 (in 20 mM HEPES pH 7.5, 150 mM KCl, 1 mM DTT, 1 mM Mg2+, 2 mM Ca2+) and increasing concentrations of peptides α7B_M and α7B_Scrb, ranging from 0.5:1 to 2:1 peptide:protein ratios. After incubating the samples for 10 minutes at room temperature, DSBU (freshly prepared solution, dissolved in neat DMSO) was added to the mixture at 50-fold molar excess compared to CIB2 concentration. As the final volume of the reaction mixture was 50 µL, 1 µL of 25 mM DSBU was added to each sample. After 20 minutes, the cross-linking reactions were quenched by adding ammonium bicarbonate to a final concentration of 20 mM. Samples were incubated for 10 minutes before SDS-PAGE analysis was performed (data not shown). Samples for MALDI-TOF-MS measurements were desalted by ZipTip C4 (Millipore) and desalted protein was eluted with 70% (v/v) acetonitrile / 1% (v/v) formic acid. Each sample was mixed with a saturated solution of sinapinic acid (in 50% (v/v) methanol / 0.1% (v/v) TFA) at 1:1 ratio and spotted onto the MALDI target. […]

[4] = target: integrin αIIb peptide (Homo sapiens) (UniProt P08514); experiment: SPR; details: cited from earlier work
Sequence of integrin αIIb peptide (Homo sapiens) (P08514 1014-1039): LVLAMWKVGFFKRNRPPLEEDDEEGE

[5] = target: T2, Calcium- and Integrin-Binding protein 2 (CIB2), human, untagged (human, UniProt O75838 1-187); experiment: cross-linking; 10 µM CIB2 incubated with 5, 10 or 20 µM peptide, then 50-fold molar excess of DSBU for 20 min at room temperature; 20 mM HEPES pH 7.5, 1 mM DTT, 1 mM Mg2+, 2 mM Ca2+; read by MALDI-TOF-MS of the intact protein; details: both partners purified
T2 construct: measured mass 21,767 Da by native ESI-MS; The printed mass (21.7 kDa) fits the whole protein; Residues may remain after TEV cleavage of the His tag; also called untagged CIB2; uncoupled CIB2
T2 sequence (looked up): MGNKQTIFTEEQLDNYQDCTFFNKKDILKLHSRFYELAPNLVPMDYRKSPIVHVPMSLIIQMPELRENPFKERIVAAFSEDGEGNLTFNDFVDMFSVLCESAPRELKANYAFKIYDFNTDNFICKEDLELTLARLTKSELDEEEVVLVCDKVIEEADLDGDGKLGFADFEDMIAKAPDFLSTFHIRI

[6] = target: T3, His-tagged CIB2, human (TEV protease recognition site and His tag kept) (human, UniProt O75838 1-187); experiment: SPR; His-tagged CIB2 captured by its His tag on a His-cap chip, then blocked via amine coupling; α7B_M titrated 230 nM-30 µM in the presence of 1 mM Mg2+ without Ca2+; bivalent analyte model and steady state analysis; apparent constants; details: both partners purified
T3 construct: It was used only in the SPR experiments where CIB2 was captured by its His tag; also called His-CIB2
T3 sequence (looked up): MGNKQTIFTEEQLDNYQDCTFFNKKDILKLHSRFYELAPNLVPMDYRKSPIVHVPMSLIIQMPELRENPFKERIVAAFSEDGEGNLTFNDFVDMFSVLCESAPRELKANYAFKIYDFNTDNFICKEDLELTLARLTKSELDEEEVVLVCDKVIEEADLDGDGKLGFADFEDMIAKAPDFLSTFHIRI

[7] = target: T3, His-tagged CIB2, human (TEV protease …); experiment: SPR; His-tagged CIB2 captured by its His tag on a His-cap chip, then blocked via amine coupling; peptides injected (7.5 µM; α7B_M titrated 230 nM-30 µM); 20 mM HEPES pH 7.5, 150 mM KCl, 1 mM DTT, 1 mM Mg2+, 2 mM Ca2+, 50 µM EDTA, 0.005% Tween; bivalent analyte model and steady state analysis; apparent constants; details: both partners purified
integrin α7B peptide [8] = target: integrin α7B peptide (Homo sapiens, UniProt Q13683, Mg2+); experiment: SPR
integrin α7B peptide [9] = target: integrin α7B peptide (Homo sapiens, UniProt Q13683, Mg2+ and Ca2+); experiment: SPR
CIB2 [10] = experiment: Near-UV circular dichroism; format: physicochemical, human; details: 20-30 µM, 37 °C, EGTA, 1 mM Mg^2+, 2 mM Ca^2+; 20 mM HEPES pH 7.5
Procedure: CIB2 tertiary structure was investigated by using a Jasco J-710 spectropolarimeter equipped with a Peltier type cell holder as previously described. Briefly: near-UV (250–320 nm) CD spectra of 20 μM of sole CIB2 or CIB2/α7B_M complexes (1:1 and 1:2 ratios) were collected in the presence of 500 μM EGTA and after sequential additions of 1 mM Mg^2+ and 2 mM free Ca^2+. A 1 cm quartz cuvette was used, temperature was set at 37 °C, integration time and data pitch were set to 4 s and 1 nm, respectively. Each spectrum represents the average of 5 accumulations. […]
Figure S4: Structural comparison of His-CIB2 (A) and CIB2 (B). Near-UV CD spectra (250-320 nm) of 20-30 µM CIB2 were collected at 37°C in a quartz cuvette with 1 cm length path. Sequential additions of 500 µM EGTA (black), 1 mM Mg2+ (blue) and 2 mM Ca2+ (red) were performed. Near-UV CD spectra of the buffer (20 mM HEPES pH 7.5, 150 mM KCl, 1 mM DTT) was considered as blank and subtracted. Each spectrum represents the mean of 5 accumulations. Data were normalized according to the protein concentration and the number of residues (Molar Residue Ellipticity, MRE).
Figure S5: Near-UV CD spectra of CIB2 in the presence of different stoichiometric ratios of alpha7B_M peptide. Near-UV CD spectra (250-320nm) of 20 μM CIB2 in the absence of peptide (black lines) and in the presence of two different protein/peptide ratios (1:1 blue lines; 1:2 red lines) collected at 37°C in the presence of 500 μM EGTA (A) and after sequential additions of 1 mM Mg2+ (B) and 2 mM free Ca2+ (C). The spectrum of alpha7B_M peptide in the absence of CIB2 is shown in dashed grey lines. […]

## LAADGHPELGPDGHPGPGTA [α7B_C, peptide covering the C-terminal region of the cytoplasmic domain of α7B integrin]
Human CIB2 [1]
  SPR interaction with CIB2: could not detect any interaction

## KEFWGLHAKPRLKLMF [α7B_Scrb]
CIB2 [2]
  fluorescence titration of CIB2: some non-specific signal
Human CIB2 [1]
  SPR interaction with CIB2: interact with low affinity
Human CIB2 [3]
  CIB2/peptide complex formation, 1:1: only minor signals for a 1:1 complex

## CIB1 (from UniProt Q99828)
[4]
  Kd: 12 µM

B1: α7B_M peptide, membrane proximal segment of the cytoplasmic domain of α7B integrin (peptide)
peptide: Ac-LLLWKMGFFKRAKHPE-NH2
notes: integrin α7B, human, membrane proximal segment of the cytoplasmic domain; also called α7B peptide; source: synthetic peptide, bought: Genscript
[5]
  stoichiometry N: 1 peptide per CIB2 and 2 peptides per CIB2
[6]
  Kd: 210 µM
[7]
  Kd: 154 µM

B2: CIB2 (protein)
chain: MGNKQTIFTEEQLDNYQDCTFFNKKDILKLHSRFYELAPNLVPMDYRKSPIVHVPMSLIIQMPELRENPFKERIVAAFSEDGEGNLTFNDFVDMFSVLCESAPRELKANYAFKIYDFNTDNFICKEDLELTLARLTKSELDEEEVVLVCDKVIEEADLDGDGKLGFADFEDMIAKAPDFLSTFHIRI
Integrin α7B peptide [8]
  Kd: 11.6 µM
Integrin α7B peptide [9]
  Kd: 25 µM

B3: His-tagged CIB2: CIB2 with the TEV protease recognition site and the Histag kept (protein)
chain: MGNKQTIFTEEQLDNYQDCTFFNKKDILKLHSRFYELAPNLVPMDYRKSPIVHVPMSLIIQMPELRENPFKERIVAAFSEDGEGNLTFNDFVDMFSVLCESAPRELKANYAFKIYDFNTDNFICKEDLELTLARLTKSELDEEEVVLVCDKVIEEADLDGDGKLGFADFEDMIAKAPDFLSTFHIRI
modifications: left off: His tag, end not stated, kept | TEV protease recognition site (ENLYFQ), end not stated, kept
CIB2 [10]
  near-UV CD, tertiary structure vs untagged CIB2: substantially the same tertiary structure of the untagged protein
